Assay results as given in the DeepSol protein solubility set.

assay: soluble on expression in E. coli; label from the status in PepcDB or PDB records

Q: With “MQNIHQHNYVISLKTADARRQHIIQEFAKHNIPFQFFDACSIENNLYMDIEKHLPMLLNSKLSNSEKGCLMSHFLLWKKCVLDDIPYMTIFEDDIILSDESNEFISDYSWVNNRFYEQKEILIKFETFLMPVIRKFTKINEYKERAFNQLISRHFGTASYLISKEAAKYLILLYEKLPADELIAVDESIFNVLLNDKNLCVYQLEPAICVQELQFNKENSLLISQIEEDRYKNQKQNKPRKTLKQRIIKVCYNINRIFKKIKKTKLSDEKDINSDIVKFKLEHHHHHH” as the sequence, how does the “soluble on expression in E. coli” value read?
A: not soluble

Q: For “MQPKVTVAQAAELMGVSDRTIRKKIEEGEITAEPAQSAKGKGRPGYLIPVSSLPVDAQRKYWTTSEVAAASEIGEAEPDKPETTGIPYTLAELEHAVGKEKFQEMMAEAEYRLQIVEQAMNPPQGVERTIWINRLAKKYGKSTATIYRDIEKFQEWGILGLMRKSRLLTQGPQRTSIEPEVERFIRAKYLDRRKPKPAHIFRETVRFCATNGYKAPSRASVFRYISDMERYEPDLCCLAREGEEAYWKKFAEKATRKEPEFVNQVWMGDHHKLDMFISYKGKPVRPWLTVWFDVCSRVVVGWCLSVQANGRTIALALRHALLPKKIKRDDGTEDVLEIGGIPGMIYIDNGEDYKAQVRAGKKHEDWELSRETRGICASLDIKVQFATPYHPWAKAHVERFFGTFTDQFTRYQPGWCGPNNEDRPEGFDEKELHEKGLLLDLEELSERIDTWLYEYHTTEHRSLGMTPMQKHFSTPKIREGFADERALDICLMDVERAAVTPNGIERFGTRGRKRWYWHPELPAYAGQKVIIRYDPNRIGELLVFHPKTGKYLFTATNKELLDFNATKDDIQELQKRRASRRKAVKEMVRNAQQASLENIVAEREAAGSRMTSGKAGSTKGKVRAMIGTEQVVRQREEQANLAKTKRPTKTTSAFDDYILREGTEG”, which “soluble on expression in E. coli” value is on record?
A: not soluble

Q: With “MQPQAFYRVVAEDFTAVDGIIRRQLTSRVPLVEKIGDYIISAGGKRLRPLLVLLAGKTLGYKGDDLCLLAATIEFLHTSTLLHDDVVDASGLRRGRSTANALWGNAPSVLVGDFLYARSFEMMVELGSMPVMRIISQATRVIAEGEVLQLSKVRDASTTEETYMEVIRGKTAMLFEASTHSAAALCQAGEEQSEALRRFGDYLGIAFQLVDDLLDYRGDAATLGKNVGDDLAEGKPTLPLIVTMRDGTEEQAALVRKAIQQGGSQDLESVCAAVEAAGALDYTANLARDYAARAIACLDTLPDNEYRSALVELSEFAVARTH” as the sequence, how does the “soluble on expression in E. coli” value read?
A: not soluble

Q: Which “soluble on expression in E. coli” value does the source give for “MQPVLVFKLTADFREDPDPRKVNLGVGAYRTDDCHPWVLPVVKKVEQKIANDNSLNHEYLPILGLAEFRSCASRLALGDDSPALKEKRVGGVQSLGGTGALRIGADFLARWYNGTNNKNTPVYVSSPTWENHNAVFSAAGFKDIRSYRYWDAEKRGLDLQGFLNDLENAPEFSIVVLHACAHNPTGIDPTPEQWKQIASVMKHRFLFPFFDSAYQGFASGNLERDAWAIRYFVSEGFEFFCAQSFSKNFGLYNERVGNLTVVGKEPESILQVLSQMEKIVRITWSNPPAQGARIVASTLSNPELFEEWTGNVKTMADRILTMRSELRARLEALKTPGTWNHITDQIGMFSFTGLNPKQVEYLVNEKHIYLLPSGRINVSGLTTKNLDYVATSIHEAVTKIAENLYFQSHHHHHHDYKDDDDK” here?
A: soluble

Q: With “MQQSTLVRLKEKLTLKNPIMVVGLPGVGLVGKLVAEHLVDELAAERIMEVYSPHFPPQVLVNKDCTVRPVSNTIYLGKANETDVLFLVGDHQSTTAQGHYELCSLYLDIAEELKVPRIYTLGGYPTGKLTYEDTVLGVANSTELIEEIKQYGVEFRESEPSGGIVGASGLLVAFSGMRGIDAACLMGMTPGYLMDPKSAQSLLKVLCNIFGIEVNTDSLKKKAEEMENILEKLKEKEEQQNLPEVKPTEEDLRYIG” as the sequence, how does the “soluble on expression in E. coli” value read?
A: soluble

Q: With “MQRMGMVIGVKPEMIAEYKRLHAAVWPEVLALISESNIRNYTIFLREPENLLFGYWEYHGSDFSADMAKIAASPKNQEWWSFTIPCQQPLESRKEGEWWAMMEETFHLD” as the sequence, how does the “soluble on expression in E. coli” value read?
A: not soluble

Q: Which “soluble on expression in E. coli” value does the source give for “MQRNSENSKNGRRVSSSSYMSAAAAAGAAAALRLSVDARAGKEYTTQTHQRDKT” here?
A: not soluble

Q: With “MQRQEQLKKWLAEQYPGDEIQLEFAAADADFRRYFRAIWPDGASRIVMDAPPEHIGTDAYVKVRDIFSMVKVPEIYLRDRDQGFIVMEDLGKVTYLAALQHDERPFVHRHLLLEALDTLVDIQKASQPEVLPEYDETLLTRELNLFPEWFCAKELGKPLNFKQRQLWDAGVQALLPALLTQPKVFVHRDFIVRNLMLTPGTPGVLDFQDAVYGPISYDAVSLLRDAFIEWDEEFVLDLAIRYWEKARAAGLPVPEAFDDFYRAFEWMGVQRHLKVAGIFARLYHRDGKDKYLAEIPRFIKYLKRTTRRYAELAPFYQLLVDLVGRDATDEELQSSYPVLGVKGHLEHHHHHH” as the sequence, how does the “soluble on expression in E. coli” value read?
A: not soluble

Q: For “MQRSLFSKFRQILTYKCDWYGKELILADKTYPSTQRCAKCGYVKTGDEKITLQGNQKHGTKHNEYICYKCDYSNDRDENAVLNLLALARLEHHHHHH”, which “soluble on expression in E. coli” value is on record?
A: not soluble

Q: With “MQRVAISTLGCKINQFESAAMTESLGREGFRVVPFDEDADIYVINTCTVTAKTDAESRRLIRRALRRNPAARVVVTGCYAQVAPDAVKDLPGVALVVGNSEKRSIGELLRDAAPAEKVMVSDISRERTAEGLRLESFAEHTRAFLQVQNGCDAFCSYCIVPYARGRSRSVSFSEALAGIRNFAAQGFREVVLTGIHLGAYGLDLAPPTNLLALLEASEAEKAVPRLRVGSVEPNELTDALVDFLARSETVCPHLHIPLQSGDDRVLERMGRRYTAAFFRERVERLVAVVPDIFIGCDVIAGFPGETDEEFQNTVRLIEELPVASLHVFPYSRREGTAAARMEGQVDGKVIRGRAEILREVGERKRRSFCERFVGRELAVLMQNRGRDGEAVGLSRNYLPVRVPGYAGEMNAEATVMVTEVTPDGVGGIIRGLEHHHHHH” as the sequence, how does the “soluble on expression in E. coli” value read?
A: soluble

Q: With “MQSETTSKHTDILTSLQLSLTPRRDPTFEETTTDEQTSVQIALSPCLNATIASSKYSLDDLDVSAQYLWDTAADNLIYTTSNAREIPIRTRPTTFLTKRMTEGLQVDVTGAPTSAWIAHPLTFEVIYHHLANILCATPVFYVPHPQLLIAVASHIVSPQLESWLSTFSTPLVKDALIYHEGFPAHIKSSAWQQPLHHMSSDQLSA” as the sequence, how does the “soluble on expression in E. coli” value read?
A: not soluble

Q: With “MQSVDVAIVGGGMVGLAVACGLQGSGLRVAVLEQRVQEPLAANAPPQLRVSAINAASEKLLTRLGVWQDILSRRASCYHGMEVWDKDSFGHISFDDQSMGYSHLGHIVENSVIHYALWNKAHQSSDITLLAPAELQQVAWGENETFLTLKDGSMLTARLVIGADGANSWLRNKADIPLTFWDYQHHALVATIRTEEPHDAVARQVFHGEGILAFLPLSDPHLCSIVWSLSPEEAQRMQQASEDEFNRALNIAFDNRLGLCKVESARQVFPLTGRYARQFASHRLALVGDAAHTIHPLAGQGVNLGFMDAAELIAELKRLHRQGKDIGQYIYLRRYERSRKHSAALMLAGMQGFRDLFSGTNPAKKLLRDIGLKLADTLPGVKPQLIRQAMGLNDLPEWLRLEHHHHHH” as the sequence, how does the “soluble on expression in E. coli” value read?
A: not soluble

Q: For “MQSVTPTSQYLKALNEGSHQPDDVQKEAVSRLEIIYQELINSRPPAPRTSGLMARVGKLWGKREDTKHTPVRGLYMWGGVGRGKTWLMDLFYQSLPGERKQRLHFHRFMLRVHEELTALQGQTDPLEIIADRFKAETDVLCFDEFFVSDITDAMLLGGLMKALFTRGITLVATSNIPPDELYRNGLQRARFLPAIDAIKQHCDVMNVDAGVDYRLRTLTQAHLWLSPLNDETRAQMDKLWLALAGVKRENSPTLEINHRPLATMGVENQTLAVSFTTLCVDARSQHDYIALSRLFHTVMLFDVPVMTRLMESEARRFIALVDEFYERHVKLVVSAEVPLYEIYQGERLKFEFQRCLSRLQEMQSEEYLKLEHHHHHH”, which “soluble on expression in E. coli” value is on record?
A: not soluble

Q: With “MQSWYLLYCKRGQLQRAQEHLERQAVNCLAPMITLEKIVRGKRTAVSEPLFPNYLFVEFDPEVIHTTTINATRGVSHFVRFGASPAIVPSAVIHQLSVYKPKDIVDPATPYPGDKVIITEGAFEGFQAIFTEPDGEARSMLLLNLINKEIKHSVKNTEFRKL” as the sequence, how does the “soluble on expression in E. coli” value read?
A: soluble

Q: With “MQVHVIRRENRALYAGLLEKYFRIRHQIYVVERGWKELDRPDGREIDQFDTEDAVYLLGVDNDDIVAGMRMVPTTSPTLLSDVFPQLALAGPVRRPDAYELSRIFVVPRKRGEHGGPRAEAVIQAAAMEYGLSIGLSAFTIVLETWWLPRLVDQGWKAKPLGLPQDINGFSTTAVIVDVDDDAWVGICNRRSVPGPTLEWRGLEAIRRHSLPEFQVIS” as the sequence, how does the “soluble on expression in E. coli” value read?
A: not soluble

Q: For “MQWSVWKMEESLDTLFSLLPDVRRVSCEQEMQRFTSDRRKLEWLSVRVLLYSMLQEDKEIGYSSEGKPHLTDNSSFISISHTKGYVAVILSSVAPVGIDIEQYGQRVKRVYDRFIRSDERVEPYQGDETWSMLLHWSAKETIFKSMENADADLRKLCLSHFIPQSEGVFQVREYATERQQLFTVGYRICPDFVLTWTVTIS”, which “soluble on expression in E. coli” value is on record?
A: not soluble

Q: For “MRAPFISSLVKTLVHTDYDTSTGEVRSRRATGFVVGLTGEWGLGKSSVLNLLEHDLKQMEHVAVATLNPWLFKGRDEVVEAYFNALREALGFSSSEKARKLLVHLARYKASIEFVGATTAVVIDFVVGTGSATAIWKKWVLKVVRFLSKSRGLSANEERKNLEAKLAEAKIAIVMLIDELDRVEDEEVRVVAQLVKAVGDIKGISYLVAYDPSRVAQALGKGSTPEEKQKAGESYLEKIIQFPIPLRPLFMDEARDLLLQAMRNNDVTMPAESQSYQTEILNQLLRVIRTPREIKRLIGAFAVLEEIVRGLEHHHHHH”, which “soluble on expression in E. coli” value is on record?
A: soluble

Q: For “MRAQMKQYNCHEGALPFTKSYLLRPLFNAFLMSPKPFHTTEACIGCKKCEKVCPVGNITVTDRPVWGGNCTQCLACYHVCPVHAVEYGKMTGLEHHHHHH”, which “soluble on expression in E. coli” value is on record?
A: not soluble

Q: Which “soluble on expression in E. coli” value does the source give for “MRDFNNAQITRLKVRQNAVFEKLDLEFKDGLSAISGASGVGKSVLIASLLGAFGLKESNASNIEVELIAPFLDTEEYGIFREDEHEPLVISVIKKEKTRYFLNQTSLSKNTLKALLKGLIKRLSNDRFSQNELNDILMLSLLDGYIQNENKAFSPLLGALEEKFTRLEKLEKERRLLEDKKRFQKDLEERLNFEKMKLERLDLKEDEYERLLEQKKLLSSKEKLNDKIALAL” here?
A: not soluble

Q: For “MREEKGMDQKVYDAYLSILKAELVPALGCTEPITIAYASAIARECLGAFPDVIQIKASGNIIKNVKSVVVPGTNGMKGIEAAVAAGLVGGKSEKKLEVISEVTEEEKEQIRDLVEKEIIEVGIAGSDLLLDVQVQLKKGDDSVFVRIANAHTNVVLVEKNGVRLFEKAMDCGGDDAGLSQEKKLLSVEGILEFADQVKLEDIEDVISRQIAYNTAIADEGLAHNYGANIGKVLLQAYGDQDVRVRAKARAAAGSDARMSGCELPVIINSGSGNQGITASVPVIEYAKELKCGEEKMYRALVLSNLIAIHQKTGIGPLSAYCGAVSAGCASGAAIAYLNGGDLRTISHTIVNCLAIASGIVCDGAKASCAAKIGMSVEAGLLGYLMIEQDQQFRAGDGIVKKGVEETIRSVGRLGKDGMRETDREILEIMIGK”, which “soluble on expression in E. coli” value is on record?
A: not soluble

Q: For “MREKLFWILKKYGVSDHIAKAFLEIPREEFLTKSYPLSYVYEDIVLVSYDDGEEYSTSSQPSLMALFMEWVGLDKGMRVLEIGGGTGYNAAVMSRVVGEKGLVVSVEYSRKICEIAKRNVERLGIENVIFVCGDGYYGVPEFSPYDVIFVTVGVDEVPETWFTQLKEGGRVIVPINLKLSRRQPAFLFKKKDPYLVGNYKLETRFITAGGNLGNLLERNRKLLREFPFNREILLVRSHIFVELVDLLTRRLTEIDGTFYYAGPNGVVEFLDDRMRIYGDAPEIENLLTQWESCGYRSFEYLMLHVGYNAFSHISCSI”, which “soluble on expression in E. coli” value is on record?
A: soluble
